Experimental data: publication PMC6233222, “Structure and oligomerization of the periplasmic domain of GspL from the type II secretion system of Pseudomonas aeruginosa” (Scientific Reports, 2018)

Assays:
[1] = target: the molecule itself; experiment: SEC-MALLS; GspL^fld made by incubation of GspL^peri in crystallization conditions over 48 hours and purified by SEC (absorbance at 220 nm)
[2] = target: the molecule itself; experiment: SEC-MALLS; early elution peak (EEP) of GspL^peri, one hour after purification and after concentration; Superdex 200 increase in 50 mM TRIS pH 7.5, 100 mM NaCl; tetramer converts irreversibly into dimers
[3] = target: the molecule itself; experiment: SEC-SAXS; early elution peak of GspL^peri, 9.0 mg/ml injected; Bio SEC-3 column, SWING beamline
[4] = target: the molecule itself; experiment: SEC-SAXS; late elution peak of GspL^peri, 13.7 mg/ml injected; Bio SEC-3 column, SWING beamline
[5] = target: the molecule itself; experiment: crystal structure; crystal form 1, space group I4(1)22, 2.5 Å; dimer generated by a crystallographic 2-fold axis; sample from the LEP, sitting drop vapor diffusion at 20 °C

B1: GspL^fld purified from GspL^peri that was incubated in crystallization conditions over 48 hours (domain or fragment)
chain: DSASSGGEGQLLGLLGQAATVIGGEPTVSVEQLDFSAARGDVALQVRAPGFDVLERLRSRLSESGLAVQLGSASRDGSTVSARLVIGG
notes: GspL (XcpY), P. aeruginosa PAO1; mixture of two proteolytic variants of the construct 261-382 that start at residues 286 and 295 (Edman degradation), the shorter one (from 295) predominant; the C-terminal limit 382 is that of the parent construct; The sample is a mixture of 295-382 (predominant) and 286-382; also called GspL^fld (in solution); 10 kDa band; source: E. coli BL21 (DE3), purified …
Q: How did the “stoichiometry N” value [1] turn out when B1 was run?
A: Its value is 2.

B2: GspL^peri, the complete periplasmic segment of general secretory pathway protein L (GspL) from Pseudomonas aeruginosa (domain or fragment)
chain: GDRYAAQSAELYRQLFPEDRKLINLRAQFDQHLADSASSGGEGQLLGLLGQAATVIGGEPTVSVEQLDFSAARGDVALQVRAPGFDVLERLRSRLSESGLAVQLGSASRDGSTVSARLVIGG
notes: membrane proximal domain (MPD), short linker and ferredoxin-like domain (FLD); calculated mass of the construct 13.95 kDa; No step that removes the tag is described; also called XcpY (periplasmic segment); EEP and LEP material; source: E. coli BL21 (DE3), purified (Strep-tactin, SEC on Superdex 75); not shown: Strep-tag, N-terminal, kept
Q: How did the “tetramer to dimer ratio of peak areas, higher concentration” value [2] turn out when B2 was run?
A: The value was 0.57.

Q: What about the “tetramer to dimer ratio of peak areas, lower concentration” value [2] of the same protein?
A: The value was 0.7.

Q: And the “stoichiometry N” value [3]?
A: The value was 4.

Q: What about the “stoichiometry N” value [4] of the same protein?
A: The value was 2.

B3: GspL^fld, the crystallized proteolytic product of GspL^peri (ferredoxin-like domain of GspL) (domain or fragment)
chain: RAQFDQHLADSASSGGEGQLLGLLGQAATVIGGEPTVSVEQLDFSAARGDVALQVRAPGFDVLERLRSRLSESGLAVQLGSASRDGSTVSARLVIGG
notes: GspL (XcpY), P. aeruginosa PAO1; proteolytic product of the construct 261-382 with the new N-terminus at residue 286 (Edman degradation); the C-terminal limit 382 is that of the parent construct; The protease is not identified; the N-terminal Strep-tag is lost with the N-terminal part of the MPD; also called Gsp^fld; crystal form 1; source: E. coli BL21 (DE3), purified GspL^peri (late elution …)
Q: Which “stoichiometry N” value [5] does the source give for B3 here?
A: Its value is 2.
